T1: FcγRIIb expressed on HEK cells (UniProt P31994 43-310, limits assumed)
T1 construct: whole, on cells; also called HEK293T-FcγRIIb
T1 sequence (looked up): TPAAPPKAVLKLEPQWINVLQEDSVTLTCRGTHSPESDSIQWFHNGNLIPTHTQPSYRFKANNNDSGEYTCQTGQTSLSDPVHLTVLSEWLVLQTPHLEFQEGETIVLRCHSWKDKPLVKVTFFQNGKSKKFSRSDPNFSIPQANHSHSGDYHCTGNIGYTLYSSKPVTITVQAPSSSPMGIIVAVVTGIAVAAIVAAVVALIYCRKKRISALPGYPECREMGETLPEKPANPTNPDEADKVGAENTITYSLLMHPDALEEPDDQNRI

T2: FcγRIIa extracellular domain with H131, histag (Biorbyt, batch ORB138408) (human, UniProt P12318 34-217)
T2 construct: Bought protein; also called FcγRIIa H131; not shown: histag
T2 sequence: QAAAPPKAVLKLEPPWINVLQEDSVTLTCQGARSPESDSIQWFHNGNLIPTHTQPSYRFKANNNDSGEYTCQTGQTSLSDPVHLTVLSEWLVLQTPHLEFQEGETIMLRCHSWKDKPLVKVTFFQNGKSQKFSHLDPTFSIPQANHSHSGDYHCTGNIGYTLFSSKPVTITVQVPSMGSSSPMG

T3: FcγRIIa 131H expressed on HEK cells (human, UniProt P12318 34-317)
T3 sequence: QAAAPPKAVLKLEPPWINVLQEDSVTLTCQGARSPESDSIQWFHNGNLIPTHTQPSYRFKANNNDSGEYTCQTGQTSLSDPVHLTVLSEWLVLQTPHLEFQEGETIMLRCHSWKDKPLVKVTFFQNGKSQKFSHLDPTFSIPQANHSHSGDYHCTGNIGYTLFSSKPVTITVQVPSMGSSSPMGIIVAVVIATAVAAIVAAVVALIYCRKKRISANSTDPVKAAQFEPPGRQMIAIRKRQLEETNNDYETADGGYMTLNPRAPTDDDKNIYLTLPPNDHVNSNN

B1: mAb 1 (antibody, human IgG1, kappa)
heavy: not shown
light: DIVMTQSHLSMSTSLGDPVSITCKASQDVSTVVAWYQQKPGQSPRRLIYSASYRYIGVPDRFTGSGAGTDFTFTISSVQAEDLAVYYCQQHYSPPYTFGGGTKLEIKRTVAAPSVFIFPPSDEQLKSGTASVVCLLNNFYPREAKVQWKVDNALQSGNSQESVTEQDSKDSTYSLSSTLTLSKADYEKHKVYACEVTHQGLSSPVTKSFNRGEC
notes: also called HEAVY CHAIN 1 / LIGHT CHAIN 1
B2: mAb 2 (antibody, human IgG1, kappa)
heavy: not shown
light: B1 light
notes: also called HEAVY CHAIN 2 / LIGHT CHAIN 1
B3: mAb 4 (antibody, human IgG1, kappa)
heavy: QVQLVQSGAEVAKPGTSVKLSCKASGYTFTDYWMQWVKQRPGQGLEWIGTIYPGDGDTGYAQKFQGKATLTADKSSKTVYMHLSSLASEDSAVYYCARGDYYGSNSLDYWGQGTSVTVSSASTKGPSVFPLAPSSKSTSGGTAALGCLVKDYFPEPVTVSWNSGALTSGVHTFPAVLQSSGLYSLSSVVTVPSSSLGTQTYICNVNHKPSNTKVDKKVEPKSCDKTHTCPPCPAPELLAGPDVFLFPPKPKDTLMISRTPEVTCVVVDVSHEDPEVKFNWYVDGVEVHNAKTKPREEQYNSTYRVVSVLTVLHQDWLNGKEYKCKVSNKALPLPEEKTISKAKGQPREPQVYTLPPSRDELTKNQVSLTCLVKGFYPSDIAVEWESNGQPENNYKTTPPVLDSDGSFFLYSKLTVDKSRWQQGNVFSCSVMHEALHNHYTQKSLSLSPG
light: B1 light
notes: also called HEAVY CHAIN 4 / LIGHT CHAIN 1
B4: mAb 5 (antibody, human IgG1, kappa, V domains shown)
VH: QVQLVQSGAEVAKPGASVKVSCKASGYTFTDYWMQWVRQAPGQGLEWIGTIYPGDGDTSYAQKFQGRVTMTADTSTSTVYMELSSLRSEDTAVYYCARGDYYGSNSLDYWGQGTLVTVSS
VL: DIVMTQSPDSLAVSLGERATINCKSSQDVSTVLAWYQQKPGQSPRRLIYSASYRYIGVPDRFSGSGSGTDFTLTISSLQAEDVAVYYCQQHYSPPYTFGGGTKLEIKR
notes: Humanized heavy and light chains with engineered Fc; also called anti-CD38 mAb 5; HEAVY CHAIN 5 / LIGHT CHAIN 2
B5: mAb 6 (antibody, human IgG1, kappa, V domains shown)
VH: B4 VH
VL: B4 VL with L33V, L73F
notes: Humanized heavy and light chains with engineered Fc; also called anti-CD38 mAb 6; HEAVY CHAIN 5 / LIGHT CHAIN 3
B6: mAb 8 (antibody, human IgG1, kappa, V domains shown)
VH: B4 VH with R38K, A40R, S59G, T74K
VL: B4 VL with L33V, L73F
notes: Humanized heavy and light chains with engineered Fc; also called anti-CD38 mAb 8; HEAVY CHAIN 6 / LIGHT CHAIN 3
B7: mAb 7 (antibody, human IgG1, kappa, V domains shown)
VH: B4 VH with R38K, A40R, S59G, T74K
VL: B4 VL
notes: Humanized heavy and light chains with engineered Fc; also called anti-CD38 mAb 7; HEAVY CHAIN 6 / LIGHT CHAIN 2

Changes are numbered by the printed parent chain.

Usually IC50 stands for the concentration needed to halve the response being measured. Usually koff stands for the rate constant with which the complex falls apart. A lower koff goes with a long-lived complex. By kon is commonly meant a measure of how fast the partners come together. A lower kon goes with slower complex formation.

The target of one test is T4, FcγRIIIa 158V expressed on cells (human, UniProt P08637 17-254).
T4 construct: also called HEK293T-FcγRIIIa-158V; FcγRIIIa (CD16a) 158V
Description: flow cytometry on HEK293T cells expressing the receptor, FITC anti-human IgG; mean apparent Kd.
As for B1, the Kd was found to be 165 nM.

On to B2, for which the Kd is 17.6 nM.

In the case of B3, the Kd turned out to be 28.1 nM.

The next test addresses T1, FcγRIIb expressed on HEK cells. In words: flow cytometry on HEK293T cells expressing the receptor, FITC anti-human IgG; mean Kd. (A flow cytometer gives signals particle by particle.)
In turn, B1 had a Kd of 1300 nM.

B3 returned a Kd of 544 nM.

For another test, the target named is T5, FcγRI expressed on HEK cells (UniProt P12314 16-374, limits assumed).
T5 construct: whole, on cells; also called HEK293T-FcγRI
The test is described as above.
As for B1, the Kd is 24.2 nM.

For B2, the Kd was 13.5 nM.

Turning to B3, the Kd is 15.9 nM.

The next test has as its target T1, FcγRIIb expressed on HEK cells. In words: flow cytometry on HEK293T cells expressing the receptor.
In the case of B1, the “difference in affinity versus mAb 1” value is 1 fold.

A further test deals with T5, FcγRI expressed on HEK cells. The test is described as above.
Regarding B1, the “difference in affinity versus mAb 1” value came to 1 fold.

Consider B2, for which the “difference in affinity versus mAb 1” value was determined as 1.8 fold.

Regarding B3, the “difference in affinity versus mAb 1” value came out at 1.5 fold.

The next test addresses T2, FcγRIIa extracellular domain with H131, …. Description: AlphaScreen competition (relative IC50): untagged mAb displaces biotinylated anti-CD38 native IgG1 from FcγRIIa-histag.
On to B1, for which the IC50 was 268 nM.

Molecule B2 showed an IC50 of 119 nM.

In turn, B3 gave an IC50 of 58 nM.

A further test addresses T6, FcγRIIIa (CD16a) extracellular domain with V158, C-terminal histag (human, UniProt P08637 17-208).
T6 construct: also called FcγRIIIa 158V; FcγRIIIa-histag; not shown: C-terminal histag
Description: SPR (BIAcore 2000), FcγRIIIa-histag captured on anti-His IgG, mAb 8-256 nM, two-state fit. For orientation: Surface plasmon resonance follows binding to a sensor surface in real time, without labels.
B1: the Kd is 425 nM.

In the case of B2, the Kd was 47 nM.

Consider B3, for which the Kd turned out to be 47 nM.

For another test, the target named is T7, human CD38 (human, UniProt P28907 43-300, limits assumed).
T7 construct: Soluble analyte in SPR; the construct (limits, tags) is not described; also called huCD38
In words: SPR (Biacore), mAb captured on anti-Fc chip, after thermal stress of the mAb (14 days at 40 C); n = 3.
On to B4, for which the Kd was 0.828 nM, the dissociation rate constant (koff) stood at 0.00236 s⁻¹ and the kon was 2.95e+06 M⁻¹ s⁻¹.

Molecule B5 returned a Kd of 0.346 nM, a koff of 0.00128 s⁻¹ and a kon of 3.86e+06 M⁻¹ s⁻¹.

With B6, the Kd was 0.198 nM, the dissociation rate constant (koff) was 0.000663 s⁻¹ and the kon was determined as 3.53e+06 M⁻¹ s⁻¹.

In the case of B7, the Kd is 0.394 nM, the koff amounted to 0.00133 s⁻¹ and the kon came to 3.39e+06 M⁻¹ s⁻¹.

For a further test, the target named is T3, FcγRIIa 131H expressed on HEK cells. Description: flow cytometry on HEK293T cells expressing the receptor, FITC anti-human IgG; mean Kd.
In turn, B1 gave a Kd of 1180 nM.

With B2, the Kd is 840 nM.

For the molecule B3, the Kd was found to be 544 nM.

The target of another test is T4, FcγRIIIa 158V expressed on cells. Description: flow cytometry on HEK293T cells expressing the receptor.
For B1, the “Fold difference in affinity versus mAb 1” value worked out at 1 fold.

As to B2, the “Fold difference in affinity versus mAb 1” value is 9.4 fold.

On to B3, for which the “Fold difference in affinity versus mAb 1” value was determined as 5.9 fold.

The target of the next test is T7, human CD38. In words: SPR (Biacore), mAb captured on anti-Fc CM5 chip, huCD38 injected; n = 3.
B4 had a Kd of 0.699 nM, an off-rate (koff) of 0.00188 s⁻¹ and a kon of 2.78e+06 M⁻¹ s⁻¹.

With B5, the Kd came to 0.385 nM, the koff was around 0.00119 s⁻¹ and the kon stood at 3.1e+06 M⁻¹ s⁻¹.

For the molecule B6, the Kd is 0.191 nM, the koff was 0.00065 s⁻¹ and the on-rate constant (kon) stood at 3.51e+06 M⁻¹ s⁻¹.

Regarding B7, the Kd worked out at 0.415 nM, the off-rate constant (koff) came out at 0.0013 s⁻¹ and the association rate constant (kon) was found to be 3.18e+06 M⁻¹ s⁻¹.

For the next test, the target named is T1, FcγRIIb expressed on HEK cells. In words: flow cytometry on HEK293T cells expressing the receptor; the text calls it fold lower affinity.
Turning to B2, the “difference in affinity versus mAb 1” value came to 3.9 fold.

For the molecule B3, the “difference in affinity versus mAb 1” value came out at 1.8 fold.

The target in another test is T6, FcγRIIIa (CD16a) extracellular domain …. Description: SPR, against mAb 1.
Turning to B2, the “fold higher affinity than mAb 1” value was 9 fold.

Turning to B3, the “fold higher affinity than mAb 1” value was found to be 9 fold.

The target of the next test is T4, FcγRIIIa 158V expressed on cells. Description: cell-based or functional assay.
Regarding B1, the “ADCC of RPMI-8226 cells, EC50 (calcein release)” value was 2.45 ng/mL.

With B2, the “ADCC of RPMI-8226 cells, EC50 (calcein release)” value was 0.09 ng/mL.

For B3, the “ADCC of RPMI-8226 cells, EC50 (calcein release)” value is 0.09 ng/mL.

For the next test the target is unchanged. Description: cell-based or functional assay. The source holds these as a separate data set.
Regarding B1, the “ADCC of MOLP-8 cells, EC50 (calcein release)” value was 3.3 ng/mL.

Take B2: the “ADCC of MOLP-8 cells, EC50 (calcein release)” value is 0.1 ng/mL.

In the case of B3, the “ADCC of MOLP-8 cells, EC50 (calcein release)” value is 0.12 ng/mL.

For another test, the target named is T3, FcγRIIa 131H expressed on HEK cells. Description: flow cytometry on HEK293T cells expressing the receptor.
For the molecule B1, the “difference in affinity versus mAb 1” value was 1 fold.

As for B2, the “difference in affinity versus mAb 1” value amounted to 1.4 fold.

As to B3, the “difference in affinity versus mAb 1” value is 2.2 fold.

Another test addresses T4, FcγRIIIa 158V expressed on cells. Description: cell-based or functional assay. This is another data set of the same source.
In the case of B1, the “ADCC of KMS-12BM cells, EC50 (calcein release)” value was 41 ng/mL.

With B2, the “ADCC of KMS-12BM cells, EC50 (calcein release)” value was 0.65 ng/mL.

B3: the “ADCC of KMS-12BM cells, EC50 (calcein release)” value is 0.45 ng/mL.

The values are drawn from US20200399391A1 (Sanofi, published 2020).
